Assays:
[1] = substrate: Nc1nc2c(ncn2[C@@H]2O[C@H](COP(=O)(O)OP(=O)(O)OP(=O)(O)O)[C@@H](O)[C@H]2O)c(=O)[nH]1; test: purified protein; type: biochemical, Clostridium thermosuccinogenes; details: 5 mM D-galactose, 10 mM MgCl2, 100 mM KCl, MOPS pH 7.0, 55 °C
[2] = substrate: Nc1ncnc2c1ncn2[C@@H]1O[C@H](COP(=O)(O)OP(=O)(O)OP(=O)(O)O)[C@@H](O)[C@H]1O; test: purified protein; type: biochemical, Clostridium thermosuccinogenes; details: 5 mM D-galactose, 10 mM MgCl2, 100 mM KCl, MOPS pH 7.0, 55 °C

B1: galactokinase (GalK), CDQ83_02810 (Clostridium thermosuccinogenes) (protein)
chain: DINQLKQKFIEIFGDNGEALRVFSSPGRVNLIGEHTDYNGGYVFPAALTLSSTVVARPRKDRQINLIATDLGIMVSASLDELEKHKDIKWGNYQLGVADELQKAGYKLVGCDMLFHDTVPLGSGLSSSAAIEVVTAITLVTLGNEAHGVNSGIDMVEMAKISQTAEHNYVGVNCGIMDQFASAMGKANHAIFLDCKDLSFEHVPLDLKGYRIVISNTKKKRSLGAVKYNERRSECEAGLEILKKAIPGISCLGEISAEQFEKNKHLITDEVVRKRVEHVIYEDDRVLKSVEALKKGDLHSFGRYMIESHNSLRDLYEVTGLELDTLVEEALKIDGVIGSRMTGAGFGGCTVSIVREDAVDRFIEDVGSAYTQKTGITAEFYVSEVGDGGREIK
notes: full length, N-terminal His6-TEV tag kept, E. coli Rosetta, HisTrap purified
Km [1]: 0.035 mM | kcat [1]: 2.56 ⋅ 10^3 U/umol of | Km [2]: 3.98 mM | kcat [2]: 1.07 ⋅ 10^3 U/umol of

From PMC6543838, “Assessing Cofactor Usage in Pseudoclostridium thermosuccinogenes via Heterologous Expression of Central Metabolic Enzymes” (Frontiers in Microbiology, 2019)
